Assay results as given in patent publication US8642284B1, “Methods for identifying agents that alter NAD-dependent deacetylation activity of a SIR2 protein” (Massachusetts Institute of Technology, priority 1999, dated 2014).

The molecules below were run on histone H2B (assay: ADP-ribosylation activity of wild type and mutant recombinant mSir2α proteins on histones). Conditions: 10 μg recombinant protein; H2B radioactivity, wild type = 100%.
Assay type: biochemical, calf
Experimental: Site-directed mutagenesis of mSIR2α core domain was performed with the GeneEditor™ system (Promega, Madison, Wis.) according to the procedure provided by the manufacturer. The mutant recombinant proteins were prepared in the same way as described above.
The typical reaction was performed in 50 or 100 μl of the buffer containing 5 mM Tris-HCl [pH8.0 or 9.0], 4 mM MgCl2, 0.2 mM DTT, 1 μM cold β-NAD^+ (SIGMA®) and 8 μCi nicotinamide adenine dinucleotide 5′[α-^32P]triphosphate (NAD) as a donor of ADP-ribose (˜1000 Ci/mmol, Amersham Pharmacia Biotech). To check the sensitivity to poly- or mono-ADP-ribosylation inhibitors, 3-aminobenzamide (ICN Pharmaceuticals, CA), benzamide, novobiocin and coumermycin A1 (SIGMA®) were added to the reactions prior to adding Sir2 proteins, respectively. The wild type or mutant recombinant proteins (0.5-1 μg for ySir2p and 10 μg of mSir2α) were added with 4 μg of each histone purchased from Roche Molecular Biochemicals (Indianapolis, Ind.). For the peptide experiments, 5-10 μg of unacetylated or acetylated N-terminal tail peptides (amino acids 1-20) of H3 and H4 purchased from Upstate Biotechnology™ (Lake Placid, N.Y.) were used as substrates of the yeast and mouse Sir2 recombinant proteins.
To analyze histone modification, 25 μl of 100% trichloroacetic acid (TCA) solution was mixed to the reaction mixture and left on ice for 15 min. The protein precipitates were centrifuged at 4° C. and washed with 5 or 20% TCA solution twice. The pellets were dissolved in 15 μl of Leammli's sample buffer and boiled for 1.5 min. The proteins were electrophoresed in a 10-20% gradient SDS-PAGE gel. The gel was stained with COOMASSIE® Brilliant Blue R-250 (GibcoBRL Life Technologies™, Frederick, Md.) to check equal loading of histones, dried, and exposed to KODAK® X-OMAT film.
Aliquots of recombinant protein (10 μg) of the wild type recombinant mSir2α (WT), the pET control pET, and the mutant proteins (G253A, G255A, S257A, I262A, F265A, R266A, G270A, P285A, T336A, H355A) were incubated with H2B or H3. […] All of the mutations of highly conserved residues dramatically affected the mono-ADP-ribosylation activity of mSir2α (FIG. 6B). The results were similar using H2B or H3.
The radioactivity of H2B modified by the wild type is assigned to 100% and other data were normalized according to the wild type activity and blots quantitated by Phosphorimaging. The averages and the standard deviations were calculated from two independent experiments. In the core domain of ySir2p, mutations on highly conserved residues also affected the mono-ADP-ribosylation activity. Therefore, the core domain of Sir2 proteins contain the catalytic activity of mono-ADP-ribosylation and the evolutionarily conserved residues in the core domain are essential for this activity.

| Molecule | mono-ADP-ribosylation activity compared to the wild type activity |
| --- | --- |
| P285A: recombinant mSir2α core domain mutant, residue changed to alanine (protein, left off: small tags and cut ends, recombinant mSir2α core domain mutant, residue changed to alanine) MADEVALALQAAGSPSAAAAMEAASQPADEPLRKRPRRDGPGLGRSPGEPSAAVAPAAAGCEAASAAAPAALWREAAGAAASAEREAPATAVAGDGDNGSGLRREPRAADDFDDDEGEEEDEAAAAAAAAAIGYRDNLLLTDGLLTNGFHSCESDDDDRTSHASSSDWTPRPRIGPYTFVQQHLMIGTDPRTILKDLLPETIPPPELDDMTLWQIVINILSEPPKRKKRKDINTIEDAVKLLQECKKIIVLTGAGVSVSCGIPDFRSRDGIYARLAVDFPDLPDAQAMFDIEYFRKDPRPFFKFAKEIYPGQFQPSLCHKFIALSDKEGKLLRNYTQNIDTLEQVAGIQRILQCHGSFATASCLICKYKVDCEAVRGDIFNQVVPRCPRCPADEPLAIMKPEIVFFGENLPEQFHRAMKYDKDEVDLLIVIGSSLKVRPVALIPSSIPHEVPQILINREPLPHLHFDVELLGDCDVIINELCHRLGGEYAKLCCNPVKLSEITEKPPRPQKELVHLSELPPTPLHISEDSSSPERTVPQDSSVIATLVDQATNNNVNDLEVSESSCVEEKPQEVQTSRNVENINVENPDFKAVGSSTADKNERTSVAETVRKCWPNRLAKEQISKRLEGNQYLFVPPNRYIFHGAEVYSDSEDDVLSSSSCGSNSDSGTCQSPSLEEPLEDESEIEEFYNGLEDDTERPECAGGSGFGADGGDQEVVNEAIATRQELTDVNYPSDKS | 5% |
| S257A: recombinant mSir2α core domain mutant, residue changed to alanine (protein, left off: small tags and cut ends, recombinant mSir2α core domain mutant, residue changed to alanine) MADEVALALQAAGSPSAAAAMEAASQPADEPLRKRPRRDGPGLGRSPGEPSAAVAPAAAGCEAASAAAPAALWREAAGAAASAEREAPATAVAGDGDNGSGLRREPRAADDFDDDEGEEEDEAAAAAAAAAIGYRDNLLLTDGLLTNGFHSCESDDDDRTSHASSSDWTPRPRIGPYTFVQQHLMIGTDPRTILKDLLPETIPPPELDDMTLWQIVINILSEPPKRKKRKDINTIEDAVKLLQECKKIIVLTGAGVAVSCGIPDFRSRDGIYARLAVDFPDLPDPQAMFDIEYFRKDPRPFFKFAKEIYPGQFQPSLCHKFIALSDKEGKLLRNYTQNIDTLEQVAGIQRILQCHGSFATASCLICKYKVDCEAVRGDIFNQVVPRCPRCPADEPLAIMKPEIVFFGENLPEQFHRAMKYDKDEVDLLIVIGSSLKVRPVALIPSSIPHEVPQILINREPLPHLHFDVELLGDCDVIINELCHRLGGEYAKLCCNPVKLSEITEKPPRPQKELVHLSELPPTPLHISEDSSSPERTVPQDSSVIATLVDQATNNNVNDLEVSESSCVEEKPQEVQTSRNVENINVENPDFKAVGSSTADKNERTSVAETVRKCWPNRLAKEQISKRLEGNQYLFVPPNRYIFHGAEVYSDSEDDVLSSSSCGSNSDSGTCQSPSLEEPLEDESEIEEFYNGLEDDTERPECAGGSGFGADGGDQEVVNEAIATRQELTDVNYPSDKS | completely abolished the activity |
| G253A: recombinant mSir2α core domain mutant, glycine 253 changed to alanine (protein, left off: small tags and cut ends, recombinant mSir2α core domain mutant, glycine 253 changed to alanine) MADEVALALQAAGSPSAAAAMEAASQPADEPLRKRPRRDGPGLGRSPGEPSAAVAPAAAGCEAASAAAPAALWREAAGAAASAEREAPATAVAGDGDNGSGLRREPRAADDFDDDEGEEEDEAAAAAAAAAIGYRDNLLLTDGLLTNGFHSCESDDDDRTSHASSSDWTPRPRIGPYTFVQQHLMIGTDPRTILKDLLPETIPPPELDDMTLWQIVINILSEPPKRKKRKDINTIEDAVKLLQECKKIIVLTAAGVSVSCGIPDFRSRDGIYARLAVDFPDLPDPQAMFDIEYFRKDPRPFFKFAKEIYPGQFQPSLCHKFIALSDKEGKLLRNYTQNIDTLEQVAGIQRILQCHGSFATASCLICKYKVDCEAVRGDIFNQVVPRCPRCPADEPLAIMKPEIVFFGENLPEQFHRAMKYDKDEVDLLIVIGSSLKVRPVALIPSSIPHEVPQILINREPLPHLHFDVELLGDCDVIINELCHRLGGEYAKLCCNPVKLSEITEKPPRPQKELVHLSELPPTPLHISEDSSSPERTVPQDSSVIATLVDQATNNNVNDLEVSESSCVEEKPQEVQTSRNVENINVENPDFKAVGSSTADKNERTSVAETVRKCWPNRLAKEQISKRLEGNQYLFVPPNRYIFHGAEVYSDSEDDVLSSSSCGSNSDSGTCQSPSLEEPLEDESEIEEFYNGLEDDTERPECAGGSGFGADGGDQEVVNEAIATRQELTDVNYPSDKS | completely abolished the activity |
| G255A: recombinant mSir2α core domain mutant, residue changed to alanine (protein, left off: small tags and cut ends, recombinant mSir2α core domain mutant, residue changed to alanine) MADEVALALQAAGSPSAAAAMEAASQPADEPLRKRPRRDGPGLGRSPGEPSAAVAPAAAGCEAASAAAPAALWREAAGAAASAEREAPATAVAGDGDNGSGLRREPRAADDFDDDEGEEEDEAAAAAAAAAIGYRDNLLLTDGLLTNGFHSCESDDDDRTSHASSSDWTPRPRIGPYTFVQQHLMIGTDPRTILKDLLPETIPPPELDDMTLWQIVINILSEPPKRKKRKDINTIEDAVKLLQECKKIIVLTGAAVSVSCGIPDFRSRDGIYARLAVDFPDLPDPQAMFDIEYFRKDPRPFFKFAKEIYPGQFQPSLCHKFIALSDKEGKLLRNYTQNIDTLEQVAGIQRILQCHGSFATASCLICKYKVDCEAVRGDIFNQVVPRCPRCPADEPLAIMKPEIVFFGENLPEQFHRAMKYDKDEVDLLIVIGSSLKVRPVALIPSSIPHEVPQILINREPLPHLHFDVELLGDCDVIINELCHRLGGEYAKLCCNPVKLSEITEKPPRPQKELVHLSELPPTPLHISEDSSSPERTVPQDSSVIATLVDQATNNNVNDLEVSESSCVEEKPQEVQTSRNVENINVENPDFKAVGSSTADKNERTSVAETVRKCWPNRLAKEQISKRLEGNQYLFVPPNRYIFHGAEVYSDSEDDVLSSSSCGSNSDSGTCQSPSLEEPLEDESEIEEFYNGLEDDTERPECAGGSGFGADGGDQEVVNEAIATRQELTDVNYPSDKS | completely abolished the activity |
| I262A: recombinant mSir2α core domain mutant, residue changed to alanine (protein, left off: small tags and cut ends, recombinant mSir2α core domain mutant, residue changed to alanine) MADEVALALQAAGSPSAAAAMEAASQPADEPLRKRPRRDGPGLGRSPGEPSAAVAPAAAGCEAASAAAPAALWREAAGAAASAEREAPATAVAGDGDNGSGLRREPRAADDFDDDEGEEEDEAAAAAAAAAIGYRDNLLLTDGLLTNGFHSCESDDDDRTSHASSSDWTPRPRIGPYTFVQQHLMIGTDPRTILKDLLPETIPPPELDDMTLWQIVINILSEPPKRKKRKDINTIEDAVKLLQECKKIIVLTGAGVSVSCGAPDFRSRDGIYARLAVDFPDLPDPQAMFDIEYFRKDPRPFFKFAKEIYPGQFQPSLCHKFIALSDKEGKLLRNYTQNIDTLEQVAGIQRILQCHGSFATASCLICKYKVDCEAVRGDIFNQVVPRCPRCPADEPLAIMKPEIVFFGENLPEQFHRAMKYDKDEVDLLIVIGSSLKVRPVALIPSSIPHEVPQILINREPLPHLHFDVELLGDCDVIINELCHRLGGEYAKLCCNPVKLSEITEKPPRPQKELVHLSELPPTPLHISEDSSSPERTVPQDSSVIATLVDQATNNNVNDLEVSESSCVEEKPQEVQTSRNVENINVENPDFKAVGSSTADKNERTSVAETVRKCWPNRLAKEQISKRLEGNQYLFVPPNRYIFHGAEVYSDSEDDVLSSSSCGSNSDSGTCQSPSLEEPLEDESEIEEFYNGLEDDTERPECAGGSGFGADGGDQEVVNEAIATRQELTDVNYPSDKS | completely abolished the activity |
